Experimental findings from article PMC9334217 are described below.

What is called stoichiometry N is a count of units in the complex or per binding partner. A word on the Km: it is the substrate concentration at which the rate is half of its maximum.

In data set [1] the target is PpDyP variant 6E10 (E188K/A142V/H125Y) (Pseudomonas putida MET94). Kind of data set: crystal structure.
In data set [2] the test system is CCn1c(=NN=c2sc3cc(S(=O)(=O)O)ccc3n2CC)sc2cc(S(=O)(=O)O)ccc21. As to the kind of experiment: purified protein. The following applies: 1.5 mM H2O2, 100 mM sodium acetate, pH 4.3, 25 °C, variant 29E4.

On to “PpDyP variant 6E10 (E188K/A142V/H125Y) (enzyme)”, for which the stoichiometry N in data set [1] is 4.
Consider “PpDyP (Pseudomonas putida KT2440; E188K/H125Y)”, for which, in data set [2], the Km is listed as 810 ± 190 µM.
